According to IntAct's records for PubMed 35512704:

B1: Speckle-type POZ protein (Homo sapiens), O43791 (parent)
chain: MSRVPSPPPPAEMSSGPVAESWCYTQIKVVKFSYMWTINNFSFCREEMGEVIKSSTFSSGANDKLKWCLRVNPKGLDEESKDYLSLYLLLVSCPKSEVRAKFKFSILNAKGEETKAMESQRAYRFVQGKDWGFKKFIRRDFLLDEANGLLPDDKLTLFCEVSVVQDSVNISGQNTMNMVKVPECRLADELGGLWENSRFTDCCLCVAGQEFQAHKAILAARSPVFSAMFEHEMEESKKNRVEINDVEPEVFKEMMCFIYTGKAPNLDKMADDLLAAADKYALERLKVMCEDALCSNLSVENAAEILILADLHSADQLKTQAVDFINYHASDVLETSGWKSMVVSHPHLVAEAYRSLASAQCPFLGPPRKRLKQS
partner: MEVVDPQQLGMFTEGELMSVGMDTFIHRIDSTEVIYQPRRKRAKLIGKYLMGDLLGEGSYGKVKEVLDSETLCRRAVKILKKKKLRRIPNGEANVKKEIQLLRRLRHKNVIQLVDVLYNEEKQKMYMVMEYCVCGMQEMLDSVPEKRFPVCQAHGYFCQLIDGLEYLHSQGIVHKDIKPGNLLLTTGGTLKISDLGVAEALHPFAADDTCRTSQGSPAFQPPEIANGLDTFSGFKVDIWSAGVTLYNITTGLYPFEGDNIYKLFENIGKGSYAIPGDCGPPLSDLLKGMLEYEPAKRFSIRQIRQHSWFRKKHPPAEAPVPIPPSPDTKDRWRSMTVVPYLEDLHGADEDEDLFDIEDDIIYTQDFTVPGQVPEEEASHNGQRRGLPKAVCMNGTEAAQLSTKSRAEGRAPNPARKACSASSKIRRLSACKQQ
B2: Speckle-type POZ protein (Homo sapiens), O43791 (parent)
chain: B1 chain
partner: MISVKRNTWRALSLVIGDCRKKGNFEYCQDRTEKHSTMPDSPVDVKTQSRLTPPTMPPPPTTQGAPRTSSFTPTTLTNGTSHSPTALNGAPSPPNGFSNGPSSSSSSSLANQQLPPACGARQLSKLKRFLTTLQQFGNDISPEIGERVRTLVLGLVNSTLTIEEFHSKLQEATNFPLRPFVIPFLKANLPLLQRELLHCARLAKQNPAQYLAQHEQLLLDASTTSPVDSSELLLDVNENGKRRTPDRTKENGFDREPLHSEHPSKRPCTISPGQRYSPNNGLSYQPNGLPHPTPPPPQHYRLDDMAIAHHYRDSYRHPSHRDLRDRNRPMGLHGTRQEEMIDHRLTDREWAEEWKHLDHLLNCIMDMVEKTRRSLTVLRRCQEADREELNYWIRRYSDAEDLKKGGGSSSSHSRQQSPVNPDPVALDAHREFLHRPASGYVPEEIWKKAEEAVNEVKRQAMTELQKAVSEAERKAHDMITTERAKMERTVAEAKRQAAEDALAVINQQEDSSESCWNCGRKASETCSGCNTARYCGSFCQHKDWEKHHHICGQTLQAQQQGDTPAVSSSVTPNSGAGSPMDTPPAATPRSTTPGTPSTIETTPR
B3: Speckle-type POZ protein (Homo sapiens), O43791 (parent)
chain: B1 chain
partner: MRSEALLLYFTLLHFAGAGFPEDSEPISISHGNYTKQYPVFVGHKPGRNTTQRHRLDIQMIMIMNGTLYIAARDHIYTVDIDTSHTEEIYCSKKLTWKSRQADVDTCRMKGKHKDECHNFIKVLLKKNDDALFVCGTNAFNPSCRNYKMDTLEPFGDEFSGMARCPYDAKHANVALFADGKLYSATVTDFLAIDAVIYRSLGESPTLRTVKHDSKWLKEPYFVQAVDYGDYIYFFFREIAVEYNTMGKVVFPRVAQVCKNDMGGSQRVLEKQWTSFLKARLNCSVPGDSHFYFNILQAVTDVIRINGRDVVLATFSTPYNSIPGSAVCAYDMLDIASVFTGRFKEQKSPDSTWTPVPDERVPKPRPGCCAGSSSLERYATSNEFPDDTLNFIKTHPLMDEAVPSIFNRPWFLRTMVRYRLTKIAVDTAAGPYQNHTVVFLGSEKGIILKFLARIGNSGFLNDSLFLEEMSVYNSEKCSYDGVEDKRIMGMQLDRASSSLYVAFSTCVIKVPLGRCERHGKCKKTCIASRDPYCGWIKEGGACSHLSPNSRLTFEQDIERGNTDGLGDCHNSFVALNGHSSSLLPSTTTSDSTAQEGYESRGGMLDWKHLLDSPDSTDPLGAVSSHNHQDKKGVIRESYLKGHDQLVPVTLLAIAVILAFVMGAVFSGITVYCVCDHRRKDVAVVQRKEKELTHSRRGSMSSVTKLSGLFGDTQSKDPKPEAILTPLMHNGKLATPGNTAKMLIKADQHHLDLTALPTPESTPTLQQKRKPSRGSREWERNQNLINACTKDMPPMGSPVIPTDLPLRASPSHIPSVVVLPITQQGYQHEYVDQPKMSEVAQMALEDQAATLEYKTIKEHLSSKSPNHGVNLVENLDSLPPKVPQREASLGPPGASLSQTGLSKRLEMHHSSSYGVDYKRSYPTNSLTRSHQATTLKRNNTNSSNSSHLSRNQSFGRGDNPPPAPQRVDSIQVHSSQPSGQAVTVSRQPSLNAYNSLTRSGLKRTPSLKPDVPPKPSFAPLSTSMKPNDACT
B4: Speckle-type POZ protein (Homo sapiens), O43791 (parent)
chain: B1 chain
partner: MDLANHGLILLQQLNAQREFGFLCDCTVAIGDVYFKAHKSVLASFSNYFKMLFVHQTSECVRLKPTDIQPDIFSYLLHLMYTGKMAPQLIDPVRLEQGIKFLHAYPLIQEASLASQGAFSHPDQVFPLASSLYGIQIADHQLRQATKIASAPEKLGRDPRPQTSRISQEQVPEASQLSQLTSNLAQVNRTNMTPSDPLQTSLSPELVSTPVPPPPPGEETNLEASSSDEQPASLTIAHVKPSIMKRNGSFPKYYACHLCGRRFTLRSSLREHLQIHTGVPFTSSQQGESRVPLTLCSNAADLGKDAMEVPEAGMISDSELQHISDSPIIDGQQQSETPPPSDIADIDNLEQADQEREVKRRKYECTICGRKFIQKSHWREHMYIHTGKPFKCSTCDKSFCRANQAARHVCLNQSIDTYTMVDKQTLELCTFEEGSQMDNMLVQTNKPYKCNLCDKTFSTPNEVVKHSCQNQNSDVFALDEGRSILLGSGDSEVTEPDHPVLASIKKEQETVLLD
B5: Speckle-type POZ protein (Homo sapiens), O43791 (parent)
chain: B1 chain
partner: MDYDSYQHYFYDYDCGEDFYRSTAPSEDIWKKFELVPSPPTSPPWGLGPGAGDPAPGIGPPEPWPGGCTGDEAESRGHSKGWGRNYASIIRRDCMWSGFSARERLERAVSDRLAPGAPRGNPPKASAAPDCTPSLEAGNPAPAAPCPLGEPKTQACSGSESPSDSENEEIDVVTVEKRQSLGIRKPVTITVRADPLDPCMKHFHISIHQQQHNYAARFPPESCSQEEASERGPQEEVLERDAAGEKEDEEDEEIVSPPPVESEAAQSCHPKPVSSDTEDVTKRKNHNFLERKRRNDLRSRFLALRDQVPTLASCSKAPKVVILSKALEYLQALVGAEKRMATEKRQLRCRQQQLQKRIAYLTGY

Variants of: B1
Details: with stk11_human STK11, Q15831

Row | effect of a mutation on the interaction | Variant
1 | with no effect | Y87C

Variants of: B2
Details: with mtg8_human RUNX1T1, Q06455

Row | effect of a mutation on the interaction | Variant
2 | with no effect | F133V

Variants of: B2
Details: with mtg8_human RUNX1T1, Q06455
Remark: another data set of the same source

Row | effect of a mutation on the interaction | Variant
3 | disrupting interaction strength | F133V
4 | disrupting interaction strength | F133L
5 | disrupting interaction strength | Y87C

Variants of: B2
Details: with mtg8_human RUNX1T1, Q06455
Remark: another data set of the same source

Row | effect of a mutation on the interaction | Variant
6 | with no effect | F133L

Variants of: B2
Details: with mtg8_human RUNX1T1, Q06455
Remark: another data set of the same source

Row | effect of a mutation on the interaction | Variant
7 | with no effect | Y87C

Variants of: B3
Details: with sem6a_human SEMA6A

Row | effect of a mutation on the interaction | Variant
8 | with no effect | F133V

Variants of: B3
Details: with sem6a_human SEMA6A
Remark: another data set of the same source

Row | effect of a mutation on the interaction | Variant
9 | with no effect | F133L

Variants of: B3
Details: with sem6a_human SEMA6A
Remark: another data set of the same source

Row | effect of a mutation on the interaction | Variant
10 | with no effect | F102C

Variants of: B3
Details: with sem6a_human SEMA6A
Remark: another data set of the same source

Row | effect of a mutation on the interaction | Variant
11 | with no effect | Y87C

Variants of: B4
Details: with zbtb2_human ZBTB2, Q8N680

Row | effect of a mutation on the interaction | Variant
12 | with no effect | Y87C

Variants of: B4
Details: with zbtb2_human ZBTB2, Q8N680
Remark: another data set of the same source

Row | effect of a mutation on the interaction | Variant
13 | causing an interaction | F133V

Variants of: B4
Details: with zbtb2_human ZBTB2, Q8N680
Remark: another data set of the same source

Row | effect of a mutation on the interaction | Variant
14 | with no effect | F133L

Variants of: B4
Details: with zbtb2_human ZBTB2, Q8N680
Remark: another data set of the same source

Row | effect of a mutation on the interaction | Variant
15 | causing an interaction | F133L

Variants of: B5
Details: with mycl_human MYCL

Row | effect of a mutation on the interaction | Variant
16 | with no effect | Y87C

Variants of: B5
Details: with mycl_human MYCL
Remark: another data set of the same source

Row | effect of a mutation on the interaction | Variant
17 | with no effect | F133L
